Laboratory results from patent US7244563B2, “Genes for plant fatty acid modifying enzymes associated with conjugated double bond formation” (E. I. du Pont de Nemours and Company, priority 2002, dated 2007).

Assays:
[1] = system: Tobacco (Nicotiana tabacum L. cv Xanthi) callus; experiment: Fatty acid analysis (GC, GC-MS) of transgenic tobacco callus expressing the cDNA; format: cell-based; details: pBI121, 35S promoter, highest amount
Source text: The cDNAs encoding fatty acid modifying enzymes associated with conjugated double bond synthesis in seeds of Impatiens balsamina and Momordica charantia were introduced into a plant expression vector designated pML63. Vector pML63 contains the uidA gene (which encodes the GUS enzyme) operably linked to the CaMV35S promoter and 3′ NOS sequence. pML63 is modified from pMH40 to produce a minimal 3′ NOS terminator fragment. pMH 40 is described in WO 98/16650 which was published on Apr. 23, 1998, the disclosure of which are hereby incorporated by reference. Using standard techniques familiar to those skilled in the art, the 770 base pair terminator sequence contained in pMH40 was replaced with a new 3′ NOS terminator sequence comprising nucleotides 1277 to 1556 of the sequence published by Depicker et al. (1982, J. Appl. Genet. 1:561–574). A chimeric gene was constructed comprising cDNAs encoding fatty acid modifying enzymes associated with conjugated double bond synthesis in seeds of Impatiens balsamina and Momordica charantia in sense orientation with respect to the cauliflower mosaic virus 35S promoter that is located 5′ to the cDNA fragment and termination sequences from the nopaline synthase (NOS) that are located 3′ to the cDNA fragment. The cDNAs for the Impatiens polypeptide was introduced in the NcoI and EcoRI sites of the vector pML63. The cDNA for the Momordica polypeptide was introduced into the NcoI and SmaI sites of the vector pML63. The NcoI and EcoRI sites flanking the Impatiens cDNA were generated by PCR amplification of the cDNAs using oligonucleotide primers that contained these restriction sites (SEQ ID NO:7 and SEQ ID NO:8, for the sense and antisense oligonucleotides, respectively). PCR amplification was conducted using the Pfu DNA polymerase. The NcoI site flanking the 5′ end of the Momordica cDNA was generated by PCR amplification in a similar manner (SEQ ID NO:9 and SEQ ID NO:10). The 3′ end of the PCR-generated Momordica cDNA was blunt-ended which allowed for cloning into the SmaI site of the vector pML63. The resulting fusions of the cauliflower mosaic virus 35S promoter with the cDNAs encoding fatty acid modifying enzymes associated with conjugated double bond synthesis in seeds of Impatiens balsamina or Momordica charantia and NOS termination sequences were released from the vector pML63 by digestion with XbaI. The resulting XbaI fragment was ligated into the corresponding site of the binary vector pZS199 The vector pZS199 contains the following elements: (1) the chimeric gene nopaline synthase/neomycin phosphotransferase as a selectable marker for transformed plant cells (Brevan et al. (1984) Nature 304:184–186), (2) the left and right borders of the T-DNA of the Ti plasmid (Brevan et al. (1984) Nucl. Acids Res. 12:8711–8720), (3) the E. coli lacZ-complementing segment (Vieria and Messing (1982) Gene 19:259–267) with unique restriction endonuclease sites for EcoRI, KpnI, BamHI, XbaI and SalI, (4) the bacterial replication origin from the Pseudomonas plasmid pVS1 (Itoh et al. (1984) Plasmid 11:206–220), and (5) the bacterial neomycin phosphotransferase gene from Tn5 (Berg et al. (1975) Proc. Natl. Acad. Sci. U.S.A. 72:3628–3632) as a selectable marker for transformed A. tumefaciens. The nopaline synthase promoter in the plant selectable marker was replaced by the 35S promoter (Odell et al. (1985) Nature, 313:810–813) by a standard restriction endonuclease digestion and ligation strategy.
Gene fusions of the Impatiens balsamina or Momordica charantia cDNAs with the cauliflower mosaic virus 35S promoter and the NOS termination sequences in vector pZS199 were introduced into Agrobacterium tumefaciens strain LBA4404. […]

[2] = system: soybean embryos; experiment: Fatty acid composition of transgenic soybean somatic embryos (GC, GC-MS); format: cell-based
Procedure: Gene fusions of the Impatiens balsamina or Momordica charantia cDNAs with the conglycinin promoter and phaseolin termination sequences in vector pKS67 were introduced into soybean embryos using the particle bombardment method of transformation. To induce somatic embryos, cotyledons, 3–5 mm in length dissected from surface sterilized, immature seeds of a soybean cultivar A2872 or JACK-910 were cultured in the light or dark at 26° C. on an appropriate agar medium for 6–10 weeks. Somatic embryos that produce secondary embryos were then excised and placed into a suitable liquid medium. After repeated selection for clusters of somatic embryos that multiplied as early, globular staged embryos, the suspensions were maintained as described below.
Soybean embryogenic suspension cultures were then transformed with the vector pKS67 containing the Impatiens or Momordica cDNA for fatty acid modifying enzymes associated with conjugated double synthesis by the method of particle gun bombardment (Klein et al. (1987) Nature (London) 327:70, U.S. Pat. No. 4,945,050). A DuPont Biolistic™ PDS1000/HE instrument (helium retrofit) was used for these transformations.
Five to seven days post bombardment, the liquid media was exchanged with fresh media, and eleven to twelve days post bombardment with fresh media containing […] hygromycin. This selective media was refreshed weekly. Seven to eight weeks post bombardment, green, transformed tissue was observed growing from untransformed, necrotic embryogenic clusters. Isolated green tissue was removed and inoculated into individual flasks to generate new, clonally propagated, transformed embryogenic suspension cultures. Each new line was treated as an independent transformation event. These suspensions were then subcultured and maintained as clusters of immature embryos.
Transgenic soybean embryos selected and maintained in this manner were analyzed for eleostearic acid and parinaric acid content using methods described in Example 4 (Table 1). Individual embryos expressing either the Impatiens or Momordica fatty acid modifying enzyme for conjugated double bond synthesis were homogenized in 1% (w/v) sodium methoxide in methanol. Fatty acid methyl esters resulting from this transesterification step were analyzed by both GC and GC-MS as described in Example 4. Methyl esters of eleostearic and parinaric acids were identified in transgenic soybean extracts by comparison of retention times and mass spectra with those of fatty acid methyl esters prepared from seeds of Impatiens balsamina and Momordica charantia. […] In soybean embryos expressing the Momordica enzyme, eleostearic acid was detected principally as α-eleostearic acid with lesser amounts of at least two other cis-trans isomers of eleostearic acid. […]

[3] = soybean embryos, six independent transgenic lines (n = 6), ± standard deviation, % of total oil weight

B1: ChrFad2: Chrysobalanus icaco fatty acid modifying enzyme associated with conjugated double bond synthesis, SEQ ID NO:20, cDNA SEQ ID NO:19 (protein)
chain: MGAGGQKTFPRLEEEEKQQQAAAAGFKRIPTTKPPFTLSDLKKAIPPHCFQRSLLRSFSYVFIDLTIISILGYIGATYICLLPPPSKYLAWLLYWAVQGCFFTGAWALAHDCGHHAFSDYQWIDDAVGMVLHSTLMVPYFSFKYSHRRHHSNINSLERDEVFVPRPKSKIKWYCSKYLNNPLGRVLTLAVTLILGWPMYLALNASGRDYDRFVSHFYPYGPIYNDRERLQIYISDAGIFIVSYVLYQVALAKGLPWLICIYGVPLFVNNALVVTITYLQHTHPELPRYGNSEWDWFKGTLATVDRDMGPLLNWATHHVSDTHYVHHLFSTMPHYHGVEATKAVKPMLGEYYRFDPTPLYKALWREAKECLFVEPDSKSPGVFWFDKF
modifications: Chrysobalanus icaco
**Q.** How did the “α-eleostearic acid of the total fatty acids of callus samples” value [1] turn out when B1 was run?
**A.** ≤ 4.7 wt %

**Q.** And the “α-paranaric acid of the total fatty acids of callus samples” value [1]?
**A.** ≤ 0.4 wt %

**Q.** What about the “16:0” value ([2]; soybean embryos, single embryos from six independent transgenic lines (n = 6), ± standard deviation, % of total oil weight) of the same molecule?
**A.** 7.0 ± 1.4 Weight %

**Q.** What about the “18:0” value [2, 3] of the same molecule?
**A.** 1.9 ± 0.6 Weight %

**Q.** What about the “18:1” value [2, 3] of the same molecule?
**A.** 37.6 ± 6.2 Weight %

**Q.** What about the “18:2” value [2, 3] of the same molecule?
**A.** 28.1 ± 3.8 Weight %

**Q.** What about the “18:3” value [2, 3] of the same molecule?
**A.** 6.0 ± 2.5 Weight %

**Q.** And the α-Parinaric [2, 3]?
**A.** 0.9 ± 0.3 Weight %

**Q.** And the Eleostearic ([2]; soybean embryos, six independent transgenic lines (n = 6), includes cis-trans isomers of α-eleostearic acid (<1.0 wt %))?
**A.** 16.4 ± 2.4 Weight %

**Q.** What about the Other ([2]; soybean embryos, six independent transgenic lines (n = 6), primarily 20:0, 20:1, 22:0, and 22:1) of the same molecule?
**A.** <2.1 Weight %

**Q.** What about the “α-paranaric acid of the total fatty acids” value ([2]; soybean somatic embryos, β-conglycinin promoter) of the same molecule?
**A.** approximately 1 wt %

**Q.** What about the “α-eleostearic acid of the total fatty acids” value ([2]; soybean somatic embryos, β-conglycinin promoter, highest amount) of the same molecule?
**A.** ≤ 21 wt %
